Assay results reported in publication PMC7440162 (Cell, 2020).

Tests used:
PTPRS ECD-Fc = biological target: T1, PTPRS ECD-Fc (human, UniProt Q13332 30-1282); assay: SPR
T1 sequence: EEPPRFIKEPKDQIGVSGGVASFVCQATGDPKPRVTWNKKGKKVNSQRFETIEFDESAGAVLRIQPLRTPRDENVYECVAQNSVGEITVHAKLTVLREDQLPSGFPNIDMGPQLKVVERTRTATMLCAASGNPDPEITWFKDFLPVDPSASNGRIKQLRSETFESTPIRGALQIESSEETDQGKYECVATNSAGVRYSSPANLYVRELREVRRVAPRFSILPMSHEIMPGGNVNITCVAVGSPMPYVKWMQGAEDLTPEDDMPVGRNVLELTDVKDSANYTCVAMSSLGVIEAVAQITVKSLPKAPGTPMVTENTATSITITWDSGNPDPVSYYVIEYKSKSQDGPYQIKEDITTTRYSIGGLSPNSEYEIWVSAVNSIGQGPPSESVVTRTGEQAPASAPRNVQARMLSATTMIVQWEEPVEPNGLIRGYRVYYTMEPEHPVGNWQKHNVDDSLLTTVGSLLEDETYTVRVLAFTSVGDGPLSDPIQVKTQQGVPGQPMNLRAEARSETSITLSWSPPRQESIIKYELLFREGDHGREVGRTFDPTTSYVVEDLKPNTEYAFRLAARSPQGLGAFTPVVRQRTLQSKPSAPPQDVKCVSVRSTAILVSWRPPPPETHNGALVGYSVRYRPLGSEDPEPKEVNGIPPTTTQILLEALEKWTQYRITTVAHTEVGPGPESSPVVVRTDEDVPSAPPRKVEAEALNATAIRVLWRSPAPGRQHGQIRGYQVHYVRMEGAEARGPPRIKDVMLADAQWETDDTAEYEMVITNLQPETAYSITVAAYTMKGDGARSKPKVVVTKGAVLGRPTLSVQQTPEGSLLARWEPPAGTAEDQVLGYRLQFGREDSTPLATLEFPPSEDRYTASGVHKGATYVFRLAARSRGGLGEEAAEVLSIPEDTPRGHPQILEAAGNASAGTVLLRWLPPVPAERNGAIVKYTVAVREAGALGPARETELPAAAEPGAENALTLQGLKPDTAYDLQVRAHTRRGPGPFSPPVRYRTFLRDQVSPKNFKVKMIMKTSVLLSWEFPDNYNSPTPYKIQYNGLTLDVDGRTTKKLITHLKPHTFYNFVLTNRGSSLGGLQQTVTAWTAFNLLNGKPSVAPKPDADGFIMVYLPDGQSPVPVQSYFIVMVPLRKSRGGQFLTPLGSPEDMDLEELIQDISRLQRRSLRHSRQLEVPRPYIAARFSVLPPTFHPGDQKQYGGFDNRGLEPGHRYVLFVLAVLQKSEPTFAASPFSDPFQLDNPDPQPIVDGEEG

PTPRF ECD-Fc = biological target: T2, PTPRF ECD-Fc (human, UniProt P10586 30-1263); assay: SPR
T2 sequence: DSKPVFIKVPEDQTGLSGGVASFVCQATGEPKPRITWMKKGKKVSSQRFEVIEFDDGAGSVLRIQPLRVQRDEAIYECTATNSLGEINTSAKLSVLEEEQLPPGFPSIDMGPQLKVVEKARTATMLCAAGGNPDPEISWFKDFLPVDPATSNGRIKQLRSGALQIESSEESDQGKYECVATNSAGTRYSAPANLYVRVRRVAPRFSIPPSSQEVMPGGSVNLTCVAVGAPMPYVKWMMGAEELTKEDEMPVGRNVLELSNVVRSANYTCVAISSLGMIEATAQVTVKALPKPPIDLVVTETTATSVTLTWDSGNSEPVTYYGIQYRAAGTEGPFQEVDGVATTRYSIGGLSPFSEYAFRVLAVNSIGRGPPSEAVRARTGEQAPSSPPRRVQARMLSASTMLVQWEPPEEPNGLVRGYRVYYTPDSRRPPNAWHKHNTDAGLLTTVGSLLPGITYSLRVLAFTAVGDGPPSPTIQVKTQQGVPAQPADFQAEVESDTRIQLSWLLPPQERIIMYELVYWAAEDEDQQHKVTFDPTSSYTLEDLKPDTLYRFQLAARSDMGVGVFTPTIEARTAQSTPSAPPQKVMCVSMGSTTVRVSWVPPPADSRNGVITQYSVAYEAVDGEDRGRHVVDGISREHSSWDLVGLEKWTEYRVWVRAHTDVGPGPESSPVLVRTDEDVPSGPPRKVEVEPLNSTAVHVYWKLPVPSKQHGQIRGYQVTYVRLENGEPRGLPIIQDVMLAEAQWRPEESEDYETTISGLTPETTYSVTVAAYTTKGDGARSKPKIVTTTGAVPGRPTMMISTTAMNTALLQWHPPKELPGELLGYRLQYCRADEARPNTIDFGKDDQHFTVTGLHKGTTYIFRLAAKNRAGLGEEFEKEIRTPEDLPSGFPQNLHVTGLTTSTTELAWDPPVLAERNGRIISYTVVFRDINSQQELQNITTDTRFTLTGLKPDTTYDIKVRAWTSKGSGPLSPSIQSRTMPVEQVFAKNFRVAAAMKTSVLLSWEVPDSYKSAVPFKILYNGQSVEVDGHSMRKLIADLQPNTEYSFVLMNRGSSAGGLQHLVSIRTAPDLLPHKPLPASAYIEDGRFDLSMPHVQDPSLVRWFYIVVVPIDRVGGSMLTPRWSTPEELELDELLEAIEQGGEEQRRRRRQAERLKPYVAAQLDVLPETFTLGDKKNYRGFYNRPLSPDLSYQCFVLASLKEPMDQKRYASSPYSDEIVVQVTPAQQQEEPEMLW

PTPRD ECD-Fc = biological target: T3, PTPRD ECD-Fc (human, UniProt P23468 21-1265); assay: ELISA
T3 sequence: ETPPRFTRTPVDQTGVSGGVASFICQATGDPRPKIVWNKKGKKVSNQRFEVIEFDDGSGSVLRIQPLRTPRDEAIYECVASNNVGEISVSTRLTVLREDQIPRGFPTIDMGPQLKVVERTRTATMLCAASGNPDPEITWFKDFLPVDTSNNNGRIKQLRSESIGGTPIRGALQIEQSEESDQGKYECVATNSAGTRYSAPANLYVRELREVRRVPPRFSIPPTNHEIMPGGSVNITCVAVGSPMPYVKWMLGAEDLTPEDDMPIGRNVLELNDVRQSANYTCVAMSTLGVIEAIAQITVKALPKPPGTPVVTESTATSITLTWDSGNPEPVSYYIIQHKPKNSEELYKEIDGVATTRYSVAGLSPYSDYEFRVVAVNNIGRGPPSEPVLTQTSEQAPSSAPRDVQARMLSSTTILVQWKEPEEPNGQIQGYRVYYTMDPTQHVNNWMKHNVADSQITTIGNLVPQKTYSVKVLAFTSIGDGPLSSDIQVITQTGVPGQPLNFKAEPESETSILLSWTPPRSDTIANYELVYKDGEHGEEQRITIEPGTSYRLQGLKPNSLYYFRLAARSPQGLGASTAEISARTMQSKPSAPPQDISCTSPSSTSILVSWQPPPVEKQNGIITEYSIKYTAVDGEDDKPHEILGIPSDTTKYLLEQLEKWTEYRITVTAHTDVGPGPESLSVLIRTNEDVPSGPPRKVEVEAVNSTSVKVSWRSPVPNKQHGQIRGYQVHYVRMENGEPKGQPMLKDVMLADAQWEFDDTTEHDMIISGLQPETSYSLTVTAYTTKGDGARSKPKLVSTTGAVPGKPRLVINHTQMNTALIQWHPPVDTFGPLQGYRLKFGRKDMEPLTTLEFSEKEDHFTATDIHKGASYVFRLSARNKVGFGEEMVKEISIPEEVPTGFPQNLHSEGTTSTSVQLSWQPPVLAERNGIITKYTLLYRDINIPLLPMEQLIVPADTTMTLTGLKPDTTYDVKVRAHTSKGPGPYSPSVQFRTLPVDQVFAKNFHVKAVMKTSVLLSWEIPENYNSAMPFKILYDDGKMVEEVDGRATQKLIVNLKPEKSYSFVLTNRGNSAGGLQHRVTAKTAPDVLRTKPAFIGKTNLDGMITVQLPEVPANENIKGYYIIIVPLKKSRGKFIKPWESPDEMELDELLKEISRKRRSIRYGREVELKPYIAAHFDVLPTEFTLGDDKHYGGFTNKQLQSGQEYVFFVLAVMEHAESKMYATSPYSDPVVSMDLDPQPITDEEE

Measured: binding result

B1: SALM2 ECD-Fc (Fc fusion)
chain: QPCPGRCICQNVAPTLTMLCAKTGLLFVPPAIDRRVVELRLTDNFIAAVRRRDFANMTSLVHLTLSRNTIGQVAAGAFADLRALRALHLDSNRLAEVRGDQLRGLGNLRHLILGNNQIRRVESAAFDAFLSTVEDLDLSYNNLEALPWEAVGQMVNLNTLTLDHNLIDHIAEGTFVQLHKLVRLDMTSNRLHKLPPDGLFLRSQGTGPKPPTPLTVSFGGNPLHCNCELLWLRRLTREDDLETCATPEHLTDRYFWSIPEEEFLCEPPLITRQAGGRALVVEGQAVSLRCRAVGDPEPVVHWVAPDGRLLGNSSRTRVRGDGTLDVTITTLRDSGTFTCIASNAAGEATAPVEVCVVPLPLMAPPPAAPPPLTEPGSSDIATPGRPGANDSAAERRLVAAELTSNSVLIRWPAQRPVPGIRMYQVQYNSSVDDSLVYRMIPSTSQTFLVNDLAAGRAYDLCVLAVYDDGATALPATRVVGCVQFTTAGDPAPCRPLRAHFLGGTM
modifications: biotin on the AviTag (as SPR ligand)
binds: all assays above
